Laboratory results from patent publication US20240018502A1.

B1: MTSP-1 protease domain I41G/F97L/F99L/C122S/Q192S (enzyme)
chain: VVGGTDADEGEWPWQVSLHALGQGHGCGASLISPNWLVSAAHCYIDDRGFRYSDPTQWTAFLGLHDQSQRSAPGVQERRLKRIISHPFFNDLTLDYDIALLELEKPAEYSSMVRPISLPDASHVFPAGKAIWVTGWGHTQYGGTGALILQKGEIRVINQTTCENLLPQQITPRMMCVGFLSGGVDSCSGDSGGPLSSVEADGRIFQAGVVSWGDGCAQRNKPGVYTRLPLFRDWIKENTGV
B2: MTSP-1 protease domain I41S/F97G/ins97aA/T98P/C122S/Q192A (enzyme)
chain: VVGGTDADEGEWPWQVSLHALGQGHSCGASLISPNWLVSAAHCYIDDRGFRYSDPTQWTAFLGLHDQSQRSAPGVQERRLKRIISHPFFNDGAPFDYDIALLELEKPAEYSSMVRPISLPDASHVFPAGKAIWVTGWGHTQYGGTGALILQKGEIRVINQTTCENLLPQQITPRMMCVGFLSGGVDSCAGDSGGPLSSVEADGRIFQAGVVSWGDGCAQRNKPGVYTRLPLFRDWIKENTGV
B3: MTSP-1 protease domain I41A/F97G/ins97aV/T98E/C122S (enzyme)
chain: VVGGTDADEGEWPWQVSLHALGQGHACGASLISPNWLVSAAHCYIDDRGFRYSDPTQWTAFLGLHDQSQRSAPGVQERRLKRIISHPFFNDGVEFDYDIALLELEKPAEYSSMVRPISLPDASHVFPAGKAIWVTGWGHTQYGGTGALILQKGEIRVINQTTCENLLPQQITPRMMCVGFLSGGVDSCQGDSGGPLSSVEADGRIFQAGVVSWGDGCAQRNKPGVYTRLPLFRDWIKENTGV
B4: MTSP-1 protease domain I41A/F97S/ins97aA/C122S (enzyme)
chain: VVGGTDADEGEWPWQVSLHALGQGHACGASLISPNWLVSAAHCYIDDRGFRYSDPTQWTAFLGLHDQSQRSAPGVQERRLKRIISHPFFNDSATFDYDIALLELEKPAEYSSMVRPISLPDASHVFPAGKAIWVTGWGHTQYGGTGALILQKGEIRVINQTTCENLLPQQITPRMMCVGFLSGGVDSCQGDSGGPLSSVEADGRIFQAGVVSWGDGCAQRNKPGVYTRLPLFRDWIKENTGV
B5: MTSP-1 protease domain I41A/F97W/T98S/F99L/C122S/Q192A (enzyme)
chain: VVGGTDADEGEWPWQVSLHALGQGHACGASLISPNWLVSAAHCYIDDRGFRYSDPTQWTAFLGLHDQSQRSAPGVQERRLKRIISHPFFNDWSLDYDIALLELEKPAEYSSMVRPISLPDASHVFPAGKAIWVTGWGHTQYGGTGALILQKGEIRVINQTTCENLLPQQITPRMMCVGFLSGGVDSCAGDSGGPLSSVEADGRIFQAGVVSWGDGCAQRNKPGVYTRLPLFRDWIKENTGV
B6: MTSP-1 protease domain I41L/N95D/D96T/F97W/F99L/C122S/Q192A (enzyme)
chain: VVGGTDADEGEWPWQVSLHALGQGHLCGASLISPNWLVSAAHCYIDDRGFRYSDPTQWTAFLGLHDQSQRSAPGVQERRLKRIISHPFFDTWTLDYDIALLELEKPAEYSSMVRPISLPDASHVFPAGKAIWVTGWGHTQYGGTGALILQKGEIRVINQTTCENLLPQQITPRMMCVGFLSGGVDSCAGDSGGPLSSVEADGRIFQAGVVSWGDGCAQRNKPGVYTRLPLFRDWIKENTGV
B7: MTSP-1 protease domain I41T/Y60gL/N95D/D96F/F97S/F99L/C122S/Q175S/Q192A (enzyme)
chain: VVGGTDADEGEWPWQVSLHALGQGHTCGASLISPNWLVSAAHCYIDDRGFRLSDPTQWTAFLGLHDQSQRSAPGVQERRLKRIISHPFFDFSTLDYDIALLELEKPAEYSSMVRPISLPDASHVFPAGKAIWVTGWGHTQYGGTGALILQKGEIRVINQTTCENLLPQSITPRMMCVGFLSGGVDSCAGDSGGPLSSVEADGRIFQAGVVSWGDGCAQRNKPGVYTRLPLFRDWIKENTGV
B8: MTSP-1 protease domain I41A/Y60gW/N95D/D96F/F97G/F99L/C122S/Q175H/Q192A (enzyme)
chain: VVGGTDADEGEWPWQVSLHALGQGHACGASLISPNWLVSAAHCYIDDRGFRWSDPTQWTAFLGLHDQSQRSAPGVQERRLKRIISHPFFDFGTLDYDIALLELEKPAEYSSMVRPISLPDASHVFPAGKAIWVTGWGHTQYGGTGALILQKGEIRVINQTTCENLLPQHITPRMMCVGFLSGGVDSCAGDSGGPLSSVEADGRIFQAGVVSWGDGCAQRNKPGVYTRLPLFRDWIKENTGV
B9: MTSP-1 protease domain I41A/Y60gW/F99L/C122S/Q175T/Q192A (enzyme)
chain: VVGGTDADEGEWPWQVSLHALGQGHACGASLISPNWLVSAAHCYIDDRGFRWSDPTQWTAFLGLHDQSQRSAPGVQERRLKRIISHPFFNDFTLDYDIALLELEKPAEYSSMVRPISLPDASHVFPAGKAIWVTGWGHTQYGGTGALILQKGEIRVINQTTCENLLPQTITPRMMCVGFLSGGVDSCAGDSGGPLSSVEADGRIFQAGVVSWGDGCAQRNKPGVYTRLPLFRDWIKENTGV
B10: MTSP-1 protease domain Q38M/I41T/D96M/ins97aH/C122S/G151E (enzyme)
chain: VVGGTDADEGEWPWQVSLHALGMGHTCGASLISPNWLVSAAHCYIDDRGFRYSDPTQWTAFLGLHDQSQRSAPGVQERRLKRIISHPFFNMFHTFDYDIALLELEKPAEYSSMVRPISLPDASHVFPAGKAIWVTGWGHTQYGGTEALILQKGEIRVINQTTCENLLPQQITPRMMCVGFLSGGVDSCQGDSGGPLSSVEADGRIFQAGVVSWGDGCAQRNKPGVYTRLPLFRDWIKENTGV
B11: MTSP-1 Q38H/I41S/D60bT/F60eS/Y60gW/D96K/F97G/ins97aV/T98P/F99L/C122S/Q175L/Q192D (enzyme)
chain: VVGGTDADEGEWPWQVSLHALGHGHSCGASLISPNWLVSAAHCYIDTRGSRWSDPTQWTAFLGLHDQSQRSAPGVQERRLKRIISHPFFNKGVPLDYDIALLELEKPAEYSSMVRPISLPDASHVFPAGKAIWVTGWGHTQYGGTGALILQKGEIRVINQTTCENLLPQLITPRMMCVGFLSGGVDSCDGDSGGPLSSVEADGRIFQAGVVSWGDGCAQRNKPGVYTRLPLFRDWIKENTGV
B12: MTSP-1 protease domain Q38H/I41T/D96R/ins97aG/C122S/G151S (enzyme)
chain: VVGGTDADEGEWPWQVSLHALGHGHTCGASLISPNWLVSAAHCYIDDRGFRYSDPTQWTAFLGLHDQSQRSAPGVQERRLKRIISHPFFNRFGTFDYDIALLELEKPAEYSSMVRPISLPDASHVFPAGKAIWVTGWGHTQYGGTSALILQKGEIRVINQTTCENLLPQQITPRMMCVGFLSGGVDSCQGDSGGPLSSVEADGRIFQAGVVSWGDGCAQRNKPGVYTRLPLFRDWIKENTGV
B13: MTSP-1 protease domain I41S/D60bY/ins97aV/T98N/C122S/Q192H (enzyme)
chain: VVGGTDADEGEWPWQVSLHALGQGHSCGASLISPNWLVSAAHCYIDYRGFRYSDPTQWTAFLGLHDQSQRSAPGVQERRLKRIISHPFFNDFVNFDYDIALLELEKPAEYSSMVRPISLPDASHVFPAGKAIWVTGWGHTQYGGTGALILQKGEIRVINQTTCENLLPQQITPRMMCVGFLSGGVDSCHGDSGGPLSSVEADGRIFQAGVVSWGDGCAQRNKPGVYTRLPLFRDWIKENTGV
B14: MTSP-1 protease domain I41S/Y59F/D60bY/ins97aV/C122S/Q192G (enzyme)
chain: VVGGTDADEGEWPWQVSLHALGQGHSCGASLISPNWLVSAAHCFIDYRGFRYSDPTQWTAFLGLHDQSQRSAPGVQERRLKRIISHPFFNDFVTFDYDIALLELEKPAEYSSMVRPISLPDASHVFPAGKAIWVTGWGHTQYGGTGALILQKGEIRVINQTTCENLLPQQITPRMMCVGFLSGGVDSCGGDSGGPLSSVEADGRIFQAGVVSWGDGCAQRNKPGVYTRLPLFRDWIKENTGV
B15: MTSP-1 protease domain I41S/D60bY/ins97aV/A112V/C122S/Q192G/Q209L (enzyme)
chain: VVGGTDADEGEWPWQVSLHALGQGHSCGASLISPNWLVSAAHCYIDYRGFRYSDPTQWTAFLGLHDQSQRSAPGVQERRLKRIISHPFFNDFVTFDYDIALLELEKPVEYSSMVRPISLPDASHVFPAGKAIWVTGWGHTQYGGTGALILQKGEIRVINQTTCENLLPQQITPRMMCVGFLSGGVDSCGGDSGGPLSSVEADGRIFLAGVVSWGDGCAQRNKPGVYTRLPLFRDWIKENTGV
B16: MTSP-1 protease domain A35T/I41S/Y59F/ins97aV/C122S/Y146F/V183A/Q192G/R235H (enzyme)
chain: VVGGTDADEGEWPWQVSLHTLGQGHSCGASLISPNWLVSAAHCFIDDRGFRYSDPTQWTAFLGLHDQSQRSAPGVQERRLKRIISHPFFNDFVTFDYDIALLELEKPAEYSSMVRPISLPDASHVFPAGKAIWVTGWGHTQFGGTGALILQKGEIRVINQTTCENLLPQQITPRMMCAGFLSGGVDSCGGDSGGPLSSVEADGRIFQAGVVSWGDGCAQRNKPGVYTRLPLFHDWIKENTGV
B17: MTSP-1 protease domain I41S/D96K/F97G/ins97aV/T98P/F99L/C122S/Q175H/Q192D (enzyme)
chain: VVGGTDADEGEWPWQVSLHALGQGHSCGASLISPNWLVSAAHCYIDDRGFRYSDPTQWTAFLGLHDQSQRSAPGVQERRLKRIISHPFFNKGVPLDYDIALLELEKPAEYSSMVRPISLPDASHVFPAGKAIWVTGWGHTQYGGTGALILQKGEIRVINQTTCENLLPQHITPRMMCVGFLSGGVDSCDGDSGGPLSSVEADGRIFQAGVVSWGDGCAQRNKPGVYTRLPLFRDWIKENTGV
B18: MTSP-1 protease domain I41S/ins97aV/C122S/N164D/Q192G/R235H (enzyme)
chain: VVGGTDADEGEWPWQVSLHALGQGHSCGASLISPNWLVSAAHCYIDDRGFRYSDPTQWTAFLGLHDQSQRSAPGVQERRLKRIISHPFFNDFVTFDYDIALLELEKPAEYSSMVRPISLPDASHVFPAGKAIWVTGWGHTQYGGTGALILQKGEIRVIDQTTCENLLPQQITPRMMCVGFLSGGVDSCGGDSGGPLSSVEADGRIFQAGVVSWGDGCAQRNKPGVYTRLPLFHDWIKENTGV
B19: MTSP-1 protease domain I41S/Y59F/ins97aV/C122S/Q192G/N223D (enzyme)
chain: VVGGTDADEGEWPWQVSLHALGQGHSCGASLISPNWLVSAAHCFIDDRGFRYSDPTQWTAFLGLHDQSQRSAPGVQERRLKRIISHPFFNDFVTFDYDIALLELEKPAEYSSMVRPISLPDASHVFPAGKAIWVTGWGHTQYGGTGALILQKGEIRVINQTTCENLLPQQITPRMMCVGFLSGGVDSCGGDSGGPLSSVEADGRIFQAGVVSWGDGCAQRDKPGVYTRLPLFRDWIKENTGV
B20: MTSP-1 protease domain I41S/ins97aV/C122S/N164D/Q192G/R235L (enzyme)
chain: VVGGTDADEGEWPWQVSLHALGQGHSCGASLISPNWLVSAAHCYIDDRGFRYSDPTQWTAFLGLHDQSQRSAPGVQERRLKRIISHPFFNDFVTFDYDIALLELEKPAEYSSMVRPISLPDASHVFPAGKAIWVTGWGHTQYGGTGALILQKGEIRVIDQTTCENLLPQQITPRMMCVGFLSGGVDSCGGDSGGPLSSVEADGRIFQAGVVSWGDGCAQRNKPGVYTRLPLFLDWIKENTGV
B21: MTSP-1 protease domain I41S/Y59F/F97Y/ins97aV/C122S/Q192G (enzyme)
chain: VVGGTDADEGEWPWQVSLHALGQGHSCGASLISPNWLVSAAHCFIDDRGFRYSDPTQWTAFLGLHDQSQRSAPGVQERRLKRIISHPFFNDYVTFDYDIALLELEKPAEYSSMVRPISLPDASHVFPAGKAIWVTGWGHTQYGGTGALILQKGEIRVINQTTCENLLPQQITPRMMCVGFLSGGVDSCGGDSGGPLSSVEADGRIFQAGVVSWGDGCAQRNKPGVYTRLPLFRDWIKENTGV

Molecular target: plasma purified human complement protein C3 (human) (UniProt P01024)
Sequence (P01024 23-667, chain 1 of 2): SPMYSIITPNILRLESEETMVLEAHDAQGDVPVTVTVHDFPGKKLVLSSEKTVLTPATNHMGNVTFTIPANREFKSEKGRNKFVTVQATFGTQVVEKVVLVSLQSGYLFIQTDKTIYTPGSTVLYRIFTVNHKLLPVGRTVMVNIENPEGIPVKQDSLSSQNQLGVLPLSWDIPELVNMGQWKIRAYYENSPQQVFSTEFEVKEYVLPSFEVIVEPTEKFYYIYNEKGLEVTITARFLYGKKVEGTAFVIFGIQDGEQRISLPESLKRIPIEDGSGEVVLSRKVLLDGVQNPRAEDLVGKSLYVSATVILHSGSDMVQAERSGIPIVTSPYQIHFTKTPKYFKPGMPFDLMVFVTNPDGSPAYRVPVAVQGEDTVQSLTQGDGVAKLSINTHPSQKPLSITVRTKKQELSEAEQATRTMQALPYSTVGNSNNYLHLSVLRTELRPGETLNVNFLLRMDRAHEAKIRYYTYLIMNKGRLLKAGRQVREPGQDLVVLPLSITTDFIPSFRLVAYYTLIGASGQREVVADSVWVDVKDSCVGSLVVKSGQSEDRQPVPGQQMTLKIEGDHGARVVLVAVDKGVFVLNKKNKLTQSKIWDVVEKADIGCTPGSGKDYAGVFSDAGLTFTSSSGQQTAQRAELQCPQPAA
Sequence (P01024 672-1663, chain 2 of 2): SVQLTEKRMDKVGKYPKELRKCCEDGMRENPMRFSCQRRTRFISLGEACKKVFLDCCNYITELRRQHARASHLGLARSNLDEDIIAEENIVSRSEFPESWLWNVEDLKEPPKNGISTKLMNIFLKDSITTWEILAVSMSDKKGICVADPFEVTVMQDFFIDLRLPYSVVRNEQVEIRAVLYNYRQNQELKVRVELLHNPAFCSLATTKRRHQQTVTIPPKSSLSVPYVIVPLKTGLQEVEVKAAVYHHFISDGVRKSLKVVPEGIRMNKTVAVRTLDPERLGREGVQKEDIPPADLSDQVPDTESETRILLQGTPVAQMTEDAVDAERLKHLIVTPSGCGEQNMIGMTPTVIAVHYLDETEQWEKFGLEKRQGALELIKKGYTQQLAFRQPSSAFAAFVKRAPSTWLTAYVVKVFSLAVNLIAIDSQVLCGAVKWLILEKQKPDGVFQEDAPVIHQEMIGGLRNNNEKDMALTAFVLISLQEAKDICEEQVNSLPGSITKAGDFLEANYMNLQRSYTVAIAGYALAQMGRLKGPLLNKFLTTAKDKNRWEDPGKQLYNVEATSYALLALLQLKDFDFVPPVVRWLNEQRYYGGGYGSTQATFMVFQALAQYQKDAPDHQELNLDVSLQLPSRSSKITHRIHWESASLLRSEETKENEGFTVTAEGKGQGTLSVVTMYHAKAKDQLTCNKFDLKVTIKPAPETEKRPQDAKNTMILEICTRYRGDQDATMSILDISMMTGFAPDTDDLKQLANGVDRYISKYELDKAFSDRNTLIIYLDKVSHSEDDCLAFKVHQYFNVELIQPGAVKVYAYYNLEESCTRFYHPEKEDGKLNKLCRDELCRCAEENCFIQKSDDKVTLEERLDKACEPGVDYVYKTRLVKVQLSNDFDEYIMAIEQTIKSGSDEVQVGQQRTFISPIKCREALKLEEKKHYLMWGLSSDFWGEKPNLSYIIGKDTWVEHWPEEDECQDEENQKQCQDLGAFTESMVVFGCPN
Assay: cell-based or functional assay

| Binder | EC50 hC3 cleavage [nM] | EC50 of hC3 cleavage [nM] |
| --- | --- | --- |
| B1 | 41.4 |  |
| B2 | 57.2 |  |
| B3 | 18.1 |  |
| B4 | 19.8 |  |
| B5 | 27 |  |
| B6 | 62.6 |  |
| B7 | 247 |  |
| B8 | 17.5 |  |
| B9 | 17.6 |  |
| B10 | 19.1 |  |
| B11 |  | 5.25 |
| B12 | 54.1 |  |
| B13 | 8.1 |  |
| B14 | 5.24 |  |
| B15 | 4.76 |  |
| B16 | 18.4 |  |
| B17 | 195 |  |
| B18 | 46.4 |  |
| B19 | 34.1 |  |
| B20 | 49.7 |  |
| B21 | 29.1 |  |
